T1: 犬CD20 (canine CD20, B淋巴细胞抗原CD20, full length, wild type) (canine (dog), UniProt Q3C2E2 1-297)
T1 construct: Stably expressed from full-length cDNA on MDCK II (or HEK293) cells for flow cytometry and ADCC; naturally expressed on CLBL-1 canine lymphoma cells in the CDC assay; also called cCD20; MS4A1
T1 chain: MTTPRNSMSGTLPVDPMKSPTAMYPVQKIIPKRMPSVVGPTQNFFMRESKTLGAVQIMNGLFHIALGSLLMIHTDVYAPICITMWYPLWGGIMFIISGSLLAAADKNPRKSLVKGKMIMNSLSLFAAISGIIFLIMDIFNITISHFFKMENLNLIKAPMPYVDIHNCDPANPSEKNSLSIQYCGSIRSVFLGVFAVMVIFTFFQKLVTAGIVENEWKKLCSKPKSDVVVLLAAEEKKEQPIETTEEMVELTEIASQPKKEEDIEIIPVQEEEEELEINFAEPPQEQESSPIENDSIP


Target: T1, 犬CD20 (canine CD20, B淋巴细胞抗原CD20, full …)
Assay: flow cytometry, 10 ug/ml antibody on MDCK II cells expressing canine CD20 (Fig 3C)

Binder	binding result
PMX075 (antibody, V domains shown) VH: EVQLVESGGDLVKPGGSLRLSCVASGITFSRYHMSWVRQAPGKGLQWVAFINTGRSSTNYADAVAGRFTISRDNAKNTLYLQMNGLTVEDTAVYYCSTLDYWGQGTLVTVSS VL: SYVLTQLPSKSVTLKQPAHITCGGDNIGSKSVHWYQQKLGQAPILIIYYDNNRPTGIPERFSGANSGNTATLTISGALAEDEADYYCHVWDSSVNVFGGGTHLTVL	binds
PMX069 (antibody, V domains shown, also called PMX0069) VH: EMQLVESGGALVKPGGSLRLSCVASGFTFRRYHMSWVRQAPGQGLQWVAYIDSDGSPTSYGDSVKGRFTISRDNAKNTLFLQMNSLRVDDTAVYYCTTLDYWGRGTLVTVSS VL: SYVLTQVPSKNVTLKQPAHITCGGDNIGGKSVHWYQQKLGQAPLLIIYYDTRRPTGIPERFSGANSGNTATLTISRALAEDEADYYCQVWDSSGNVFGGGTHLTVI	binds
PMX078 (antibody, V domains shown) VH: EVQLVESGGDLVKPGGSLRLSCVASGLTFSRYHMSWIRQAPGKGLQWVAYISSGGSSTNYAGSVKGRFTVSRDNAKNTLYLQMNSLRAEDTAVYYCTSLDYWGQGTLVTVSS VL: SYVLTQLPSKNVTLKQPAHITCGGDNIGSKSVHWYQQKLGQAPVLIIYYDSRRPTGIPERFSGANSGNTATLTISGALAEDEADYYCQVWDSSDNVFGGGTHLTVL	binds
PMX071 (antibody, V domains shown) VH: EVHLVESGGDLVKPGGSLRLSCVASGITFNRYYMNWVRQTPGKGLQWVAYIDSGGSPTTYADAVKGRFTISRDNAKNTLYLQMNSLRAEDTAVYYCTSFDYWGQGTLVTVSS VL: SYVLTQLPSKNVTLKQPAHITCGGDNIGSKSVHWYQQKLGQAPILIIYYDTSRPTGIPERFSGANSGNTATLTISGALAEDEADYYCQVWDSSANVFGGGTHLTVL	binds
PMX076 (antibody, V domains shown) VH: EVQLVESGGDLVKPGGSLRLSCVASGITFSRYYMNWVRQAPGKGLQWVAYIDSGGSPTTYADAVKGRFTISRDNAKKALYLQMNSLRAEDTAVYYCTSFDYWGQGTLVTVSS VL: SYVLTQLPSKNVTLKQPAHITCGGDNIGSKSVHWYQQKLGQAPVLIIYYDSSRPTGIPERFSGANSGNTATLTISGALAEDEADYFCQVWDSSANVFGGGTHLTVL	binds
PMX080 (antibody, V domains shown) VH: EVQLVESGGDLVKPGGSLRLSCVASGLTFSRYYMNWVRQAPGKGLQWVAYIDSGGSPTNYADAVKGRFTISRDNAKNTLYLQMNSLRAEDTAVYYCSSFDYWGQGTLVTVSS VL: SYVVTQLPSNTVTLKQPAHITCGGDNIGSKSVHWYQQKLGQAPVLIIYYDSRRPTGIPERFSGANSGNTATLTISGALAEDEADYYCQVWDSSANVFGGGTHLTVL	binds
PMX066 (antibody, V domains shown, Canine mAb) VH: AVQLVESGGDLVKPGGSLRLSCVASGITFSRYHMSWVRQAPGKGLQWVAYINSGGSATSYTDAVKGRFSISRDNGKNTLYLQMNSLRVEDSAVYYCTTLDLWGQGTLVTVSS VL: SYVLTQLPSKNVTLKQPAHITCGGDNIGSKSVHWYQQKLGQAPVLIIYYDSRRPTGIPERFSGANSGNTATLTINGALAEDEADYYCQMWDSSANVFGGGTHLTVL	binds
PMX081 (antibody, V domains shown) VH: EVQLVQSGGDLVKPGGSLRLSCVASGYTFTRYHMSWVRQAPGKGLQWVAFINSDGTGITYGDAVKGRFTISRDNAKNTLYLQMNSLRAEDTAIYYCTTFDSWGQGTLVTVSS VL: SYVLTQLPSKNVTLKQPAHITCGGDNIGSKSVHWYQQKLGQAPILIIYYDSRRPTGIPERFSGANSGNTATLTISGALAEDEADYYCQVWDSSGNVFGGGTHLTVL	binds
PMX074 (antibody, V domains shown) VH: EVQLVESGGDLVKPGGSLRLSCVASGFTFSRYYMTWVRQAPGKGLQWVAYINSDRRSTTYADAVKGRFTISRDNAKNTLYLQMNSLRAEDTAVYYCTTLEYWGQGTLVTVSS VL: SYVLTQLPSKNVTLKQPAHITCGGDNIGSKSVHWYQQKLGQAPVLIIYYDSRRPTGIPERFSGANSGNTATLTINGALAEDEADYYCQVWDSSANVFGGGTHLTVL	binds
PMX079 (antibody, V domains shown) VH: EVQLVESGGDLVKPGGSLRLSCVASGLTFSRYHMSWVRQAPGKGLQWVAFINSGRSDTTYADAVKGRFTISRDNAKNTLYLQMNSLRAEDTAVYYCTTFDYWGQGTLVTVSS VL: SYVLTQLPSKNVTLKQPAHITCGGDNIGSKSVHWYQQKLGQAPALIIYYDSSRPTGIPERFSGANSGNTATLTISGALAEDEADYYCQVWDSSANVFGGGTHLTVL	binds
PMX067 (antibody, V domains shown, also called PMX0067) VH: EIQLVESGGDLVKPGGSLRLSCVASGFTFSRYHMSWVRQAPGKGLQWVAYINTGGSNTNYADAVKGRFTISRDNAKNTLYLQMNSLRAEDTAVYYCTTLDSWGQGTLVTVSS VL: SYVLTQLPFKNVTLKQPAHITCGGDNIGSKSVHWYQQKLGQAPVLIIYYDSRRPTGIPERFSGANSGNTATLTISGALAEDEADYYCQVWDSSVNVFGGGTHLTVL	binds

The remaining lines, values ahead:

binding result	Binder
binds	PMX077 (antibody, V domains shown) VH: EVQLVESGGDLVKPGGSLRLSCVASGITFSRYYMNWVRQAPGKGLQWVAYINSGGSPTTYADAVKGRFTISRDNAKNTLYLQMNSLRAEDTAVYYCTSFDYWGQGTLVTVSS VL: SYVLTQLPSKNVTLKQPAHITCGGDNIGSKSVHWYQQKLGQAPILIIYYDTSRPTGIPERFSGANSGNTATLTISGALAEDEADYYCQVWDSSANVFGGGTHLTVL
binds	PMX073 (antibody, V domains shown) VH: EVQLVESGGDLVKPGGSLRLSCVASGFTFSRYYMNWVRQAPGKGLQWVAFITSGGSSTSYGDAVKGRFTISRDNAKNTLYLQMNSLRAEDTAVYYCTSFDYWGQGTLVTVSS VL: SYVLTQLPSKNVTLKQPAHITCGGDNIGSKSVHWYQQKLGQAPVLIIYYASSRPTGIPERFSGANSGNTATLTISGALAEDEADYYCQVWDSSANVFGGGTHLTVL
binds	PMX072 (antibody, V domains shown) VH: EVQLVESGGDLVKPGGSLRLSCVASGFTFSRYHMSWVRQAPGKGLQWVAFINTGRSSTNYADAVAGRFTISRDNAKNTLYLQMNSLRAEDTAVYYCSTLDYWGQGTLVTVSS VL: SYVLTQLPSKNVTLKQPAHITCGGDNIGSKSVHWYQQKLGQAPVLIIYYDSSRPTGIPERFSGANSGNTATLTISGALAEDEADYYCQVWDSSANVFGGGTHLTVL
binds	PMX070 (antibody, V domains shown) VH: EMQLVESGGDLVKPGGSLRLSCVASGFTFSRYHMSWVRQAPGKGLQWVAYINSGGSPTNYADAVKGRFTISRDNAKNTLYLQMNSLRAEDTAVYYCTTYDQWGQGTLVTVSS VL: SYVLTQLPSKSVTLKQPAHITCGGDNIGSKSVHWYQQKLGQAPVLIIYYDSSRPTGIPERFSGANSGNTATLTISGALAEDEADYYCQVWDTSANVFGGGTHLTVL

Target: T1, 犬CD20 (canine CD20, B淋巴细胞抗原CD20, full …)
Assay: flow cytometry, 10 ug/ml antibody on MDCK II cells expressing canine CD20 (Fig 3A)

binding result	Binder
binds	PMX001 (antibody, V domains shown, Fully canine mAb; also called PMX001 mAb) VH: EVQLVESGGDLVKPGGSLRLSCVASGFTFSSYHMSWVRQAPGKGLQWVAYINSGGSSTTYADAVKGRFTISRDNAKKTLYLQMNSLRAEDTAVYYCSTFDYWGQGTLVTVSS VL: SYVLTQLPSRNVTLKQPAHITCGGDNIGSKSVHWYQQKLGQAPVLIIYYDTRRPTGIPERFSGANSGNTATLTISGALAEDEADYYCQVWDSSGNVFGGGTHLTVL
binds	PMX004 (antibody, V domains shown, Fully canine mAb; also called PMX004 mAb) VH: EVQLVESGGELVKPGGSLRVSCVASGITFSRYHMSWVRQAPGKGLQWVAFINTDRSSPKYADSVKGRFTISRDNAKNTLYLQMNSLRAEDTAIYYCTSFDYWGQGTLVTVSS VL: SYVLTQLPSKNVTLKQPAHITCGGDNIGSKSVHWYQQKLGQAPVLIIYYDSSRPTGIPERFSGANSGNTATLTISGALAEDEADYYCQVWDSSANVFGGGTHLTVL
binds	PMX005 (antibody, V domains shown, Fully canine mAb; also called PMX005 mAb) VH: EVQLVESGGDLVKPGGSLRLSCVASGFTFSRYHMSWVRQAPGKGLQWVAYINSGGSDSDYADAVKGRFTISRDNAKNTLYLQMNSLRAEDTAVYYCTSLDYWGQGTLVTVSS VL: SYVLTQLPSKNVTLKQPAHITCGGDNIGSKSVHWYQQKLGQAPVLIIYYDSSRPTGIPERFSGANSGNTATLTISGALAEDEADYYCQVWDRSGNVFGGGTHLTVL

Target: T1, 犬CD20 (canine CD20, B淋巴细胞抗原CD20, full …)
Assay: flow cytometry, 10 ug/ml antibody on MDCK II cells expressing canine CD20 (Fig 3B)

binding result	Binder
binds	PMX010 (antibody, V domains shown, PMX003 heavy chain; Constant regions not restated (PMX003: dog IGGB / dog IGLC5); also called PMX010 mAb; SVT) VH: EVQLVESGGDLVKPGGSLRLSCVASGITFSRYHMSWVRQAPGKGLQWVAYINSGGSSTSYPDAVKGRFTISRDNAKNTLYLQMDSLRAEDTALYYCTTFDYWGQGTLVTVSS VL: SYVLTQLPSKSVTLKQPAHITCGGDNIGSKSVHWYQQKLGQAPVLIIYYDSRRPTGIPERFSGANSGNTATLTISGALAEDEADYYCQVWDSSANVFGGGTHLTVL
binds	PMX011 (antibody, V domains shown, PMX003 heavy chain; Constant regions not restated (PMX003: dog IGGB / dog IGLC5); also called PMX011 mAb; TVT) VH: EVQLVESGGDLVKPGGSLRLSCVASGITFSRYHMSWVRQAPGKGLQWVAYINSGGSSTSYPDAVKGRFTISRDNAKNTLYLQMDSLRAEDTALYYCTTFDYWGQGTLVTVSS VL: SYVLTQLPSKTVTLKQPAHITCGGDNIGSKSVHWYQQKLGQAPVLIIYYDSRRPTGIPERFSGANSGNTATLTISGALAEDEADYYCQVWDSSANVFGGGTHLTVL
